The text below walks through data of patent US20150037333A1.

In the assay the target is canine TNF-alpha (canine) (UniProt P51742). As to the kind of experiment: cell-based or functional assay.
Chain of canine TNF-alpha (canine) (P51742 77-233 limits assumed): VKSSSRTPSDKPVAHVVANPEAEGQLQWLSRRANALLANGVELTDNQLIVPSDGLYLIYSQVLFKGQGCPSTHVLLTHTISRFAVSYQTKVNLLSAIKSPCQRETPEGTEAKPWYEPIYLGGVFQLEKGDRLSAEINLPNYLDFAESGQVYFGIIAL

“human TNFR-canine HCB control fusion protein (human TNFR extracellular domain fused N-terminally to canine HCB hinge-CH2-CH3) (Fc fusion)” gave an inhibition of canine TNF-alpha bioactivity (1 ng/ml) in 293-HEK cells with NF-kB-EGFP reporter construct pTRH1; IC50 of 1 ng/ml.
